In article PMC3708871:

T1: Recombinant SIVmac239 Nef core domain, residues 96–237
T1 chain: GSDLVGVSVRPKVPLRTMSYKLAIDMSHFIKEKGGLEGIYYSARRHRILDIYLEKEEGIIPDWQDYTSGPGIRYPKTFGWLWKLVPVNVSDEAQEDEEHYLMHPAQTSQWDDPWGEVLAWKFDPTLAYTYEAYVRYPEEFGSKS


The molecules below were run against Dynamin 2 fused to GFP (UniProt P50570) (assay: co-IP; 293T co-transfected with Nef constructs and Dyn2-GFP; lysates immunoprecipitated with a mAb to GFP, blots for Nef and GFP; band ratios). Conditions: not given.
UniProt P50570, sequence (P50570 whole entry, the tested form may be a part): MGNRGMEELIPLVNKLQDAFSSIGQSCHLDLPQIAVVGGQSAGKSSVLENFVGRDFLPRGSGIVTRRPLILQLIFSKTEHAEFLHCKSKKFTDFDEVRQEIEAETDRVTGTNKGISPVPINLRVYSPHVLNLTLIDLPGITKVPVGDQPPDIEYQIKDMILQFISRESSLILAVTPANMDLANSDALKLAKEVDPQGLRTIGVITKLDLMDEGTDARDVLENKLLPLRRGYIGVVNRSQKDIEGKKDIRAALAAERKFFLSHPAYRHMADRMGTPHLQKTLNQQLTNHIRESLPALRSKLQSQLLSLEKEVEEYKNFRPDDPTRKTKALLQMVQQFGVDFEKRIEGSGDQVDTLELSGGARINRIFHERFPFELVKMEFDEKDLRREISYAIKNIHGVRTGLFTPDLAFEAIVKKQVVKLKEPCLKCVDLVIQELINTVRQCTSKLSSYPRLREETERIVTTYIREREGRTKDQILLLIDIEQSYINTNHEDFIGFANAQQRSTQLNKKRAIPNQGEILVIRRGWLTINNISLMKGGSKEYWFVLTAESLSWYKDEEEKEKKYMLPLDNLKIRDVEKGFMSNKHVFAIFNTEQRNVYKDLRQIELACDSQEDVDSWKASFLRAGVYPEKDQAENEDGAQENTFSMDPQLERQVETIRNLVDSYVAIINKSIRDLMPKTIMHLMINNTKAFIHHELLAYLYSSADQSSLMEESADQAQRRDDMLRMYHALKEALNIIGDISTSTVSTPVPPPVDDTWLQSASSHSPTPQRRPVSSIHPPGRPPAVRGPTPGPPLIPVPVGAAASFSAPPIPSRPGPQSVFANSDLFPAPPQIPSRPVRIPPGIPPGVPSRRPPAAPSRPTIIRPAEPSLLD
Molecule “SIVmac239 Nef, wild type (natural protein)” has a Dyn2 binding (Nef/dynamin 2 band intensity in IP) of 1.1.

Each molecule was assayed against SIVmac239 Nef, wild type (assay: co-immunoprecipitation). Conditions: IP: α-BST2; parent: 0.13.
In the case of “Human tetherin (BST-2) (from UniProt Q10589) insertion of D14DIWK18 from rhesus tetherin into human tetherin (hDDIWK)”, the other: Nef/BST2 band intensity ratio is reported as 0.65.

Each molecule was assayed against Rhesus macaque tetherin (BST-2), allele rBST-2.1 (assay: co-immunoprecipitation). Conditions: 293T cells co-transfected; lysates immunoprecipitated with a monoclonal antibody to tetherin; parent: 1.
“SIVmac239 Nef, wild type M66A; N67A; T68A; P69A; W70A; R71A; I117A; L174A; W175A; N181A; V182A” showed a ratio to parent of 0.07.
“SIVmac239 Nef, wild type M66A; N67A; T68A; P69A; W70A; R71A” gave a ratio to parent of 0.05.

The molecules below were run against Peptide of the cytoplasmic domain of rhesus macaque tetherin, residues 1–26, biotinylated (rhesus macaque) (assay: SPR; BIAcore 3000, 25°C, PBS with 5 mM DTT; biotinylated tetherin peptides captured (3,000 RU) on neutravidin-coated CM5 chip, Nef proteins flowed at 5 µl/min; equilibrium analysis, apparent Kd). Conditions: not given.
In the case of “Recombinant SIVmac239 Nef core domain, residues 96–237 (domain or fragment)”, the Kd is reported as 401 µM.

Target: T1, Recombinant SIVmac239 Nef core domain, …
Assay: SPR
Conditions: chain shown with the change; Nef96–237 at about 650 µM (highest concentration point), peptide on chip; parent: est. 1900; read off a plot
MAPILYDYRKMPMAAAAAEDGDKRCK was tested, and the response was 1100 RU.

Same assay, conditions: chain shown with the change; Nef96–237 at about 650 µM (highest concentration point), peptide on chip; read off a plot
MASTSYDYSRVPMDDIWKEDGDKRCK showed a response of 800 RU.

Each molecule was assayed against Rhesus macaque tetherin (BST-2), allele rBST-2.1 (rhesus macaque) (assay: co-IP; 293T co-transfected with Nef and tetherin constructs; lysates immunoprecipitated with anti-tetherin mAb 3H4 and protein A beads, blots for Nef and tetherin; band densities by ImageJ). Conditions: not given.
With “SIVmac239 Nef with pair-wise alanine substitutions at positions 164–165 (natural protein)” the BST2 binding (Nef/tetherin band intensity in IP) was 1.34.
Work on “SIVmac239 Nef with pair-wise alanine substitutions at positions 205–206 (natural protein)” yielded a BST2 binding (Nef/tetherin band intensity in IP) of 0.94.
“SIVmac239 Nef with pair-wise alanine substitutions at positions 132–133 (natural protein)” was tested, and the BST2 binding (Nef/tetherin band intensity in IP) was 0.79.
For “SIVmac239 Nef with pair-wise alanine substitutions at positions 195–196 (natural protein)”, the BST2 binding (Nef/tetherin band intensity in IP) was 0.31.
For “SIVmac239 Nef with pair-wise alanine substitutions at positions 203–204 (natural protein)”, the BST2 binding (Nef/tetherin band intensity in IP) was 0.74.
Work on “SIVmac239 Nef with pair-wise alanine substitutions at positions 146–147 (natural protein)” yielded a BST2 binding (Nef/tetherin band intensity in IP) of 1.56.
In the case of “SIVmac239 Nef with pair-wise alanine substitutions at positions 66–67 (natural protein)”, the BST2 binding (Nef/tetherin band intensity in IP) is reported as 0.18.
“SIVmac239 Nef with pair-wise alanine substitutions at positions 158–159 (natural protein)” gave a BST2 binding (Nef/tetherin band intensity in IP) of 0.76.
Molecule “SIVmac239 Nef G2A (myristoylation site mutant) (natural protein)” has a BST2 binding (Nef/tetherin band intensity in IP) of 0.16.
Molecule “SIVmac239 Nef with pair-wise alanine substitutions at positions 142–143 (natural protein)” has a BST2 binding (Nef/tetherin band intensity in IP) of 5.1.
Molecule “SIVmac239 Nef with pair-wise alanine substitutions at positions 108–109 (natural protein)” has a BST2 binding (Nef/tetherin band intensity in IP) of 1.87.
With “SIVmac239 Nef with pair-wise alanine substitutions at positions 5–6 (natural protein)” the BST2 binding (Nef/tetherin band intensity in IP) was 0.18.
“SIVmac239 Nef with pair-wise alanine substitutions at positions 160–161 (natural protein)” showed a BST2 binding (Nef/tetherin band intensity in IP) of 1.64.
With “SIVmac239 Nef with pair-wise alanine substitutions at positions 88–89 (natural protein)” the BST2 binding (Nef/tetherin band intensity in IP) was 0.93.
“SIVmac239 Nef with pair-wise alanine substitutions at positions 134–135 (natural protein)” gave a BST2 binding (Nef/tetherin band intensity in IP) of 2.58.
For “SIVmac239 Nef with pair-wise alanine substitutions at positions 110–111 (natural protein)”, the BST2 binding (Nef/tetherin band intensity in IP) was 1.29.
In the case of “SIVmac239 Nef with pair-wise alanine substitutions at positions 74–75 (natural protein)”, the BST2 binding (Nef/tetherin band intensity in IP) is reported as 0.71.
“SIVmac239 Nef with pair-wise alanine substitutions at positions 130–131 (natural protein)” was tested, and the BST2 binding (Nef/tetherin band intensity in IP) was 2.4.
Molecule “SIVmac239 Nef with pair-wise alanine substitutions at positions 209–210 (natural protein)” has a BST2 binding (Nef/tetherin band intensity in IP) of 1.4.
Molecule “SIVmac239 Nef with pair-wise alanine substitutions at positions 82–83 (natural protein)” has a BST2 binding (Nef/tetherin band intensity in IP) of 1.38.
For “SIVmac239 Nef with pair-wise alanine substitutions at positions 176–177 (natural protein)”, the BST2 binding (Nef/tetherin band intensity in IP) was 3.17.
With “SIVmac239 Nef with pair-wise alanine substitutions at positions 128–129 (natural protein)” the BST2 binding (Nef/tetherin band intensity in IP) was 1.11.
For “SIVmac239 Nef with pair-wise alanine substitutions at positions 86–87 (natural protein)”, the BST2 binding (Nef/tetherin band intensity in IP) was 0.47.
With “SIVmac239 Nef with pair-wise alanine substitutions at positions 106–107 (natural protein)” the BST2 binding (Nef/tetherin band intensity in IP) was 0.82.
Molecule “SIVmac239 Nef with pair-wise alanine substitutions at positions 112–113 (natural protein)” has a BST2 binding (Nef/tetherin band intensity in IP) of 0.35.
For “SIVmac239 Nef with pair-wise alanine substitutions at positions 193–194 (natural protein)”, the BST2 binding (Nef/tetherin band intensity in IP) was 0.22.
“SIVmac239 Nef with pair-wise alanine substitutions at positions 140–141 (natural protein)” was tested, and the BST2 binding (Nef/tetherin band intensity in IP) was 1.38.
In the case of “SIVmac239 Nef with pair-wise alanine substitutions at positions 181–182 (natural protein)”, the BST2 binding (Nef/tetherin band intensity in IP) is reported as 0.23.
“SIVmac239 Nef with pair-wise alanine substitutions at positions 60–61 (natural protein)” was tested, and the BST2 binding (Nef/tetherin band intensity in IP) was 0.7.
For “SIVmac239 Nef with pair-wise alanine substitutions at positions 199–200 (natural protein)”, the BST2 binding (Nef/tetherin band intensity in IP) was 0.43.
“SIVmac239 Nef with pair-wise alanine substitutions at positions 174–175 (natural protein)” gave a BST2 binding (Nef/tetherin band intensity in IP) of 0.52.
In the case of “SIVmac239 Nef with pair-wise alanine substitutions at positions 64–65 (natural protein)”, the BST2 binding (Nef/tetherin band intensity in IP) is reported as 0.54.
“SIVmac239 Nef, wild type (natural protein)” was tested, and the BST2 binding (Nef/tetherin band intensity in IP) was 1.
Molecule “SIVmac239 Nef with pair-wise alanine substitutions at positions 156–157 (natural protein)” has a BST2 binding (Nef/tetherin band intensity in IP) of 1.46.
“SIVmac239 Nef with pair-wise alanine substitutions at positions 68–69 (natural protein)” showed a BST2 binding (Nef/tetherin band intensity in IP) of 0.14.
“SIVmac239 Nef with pair-wise alanine substitutions at positions 70–71 (natural protein)” was tested, and the BST2 binding (Nef/tetherin band intensity in IP) was 0.28.
Work on “SIVmac239 Nef with pair-wise alanine substitutions at positions 172–173 (natural protein)” yielded a BST2 binding (Nef/tetherin band intensity in IP) of 1.34.
In the case of “SIVmac239 Nef with pair-wise alanine substitutions at positions 170–171 (natural protein)”, the BST2 binding (Nef/tetherin band intensity in IP) is reported as 2.61.
“SIVmac239 Nef with pair-wise alanine substitutions at positions 138–139 (natural protein)” showed a BST2 binding (Nef/tetherin band intensity in IP) of 0.84.
“SIVmac239 Nef with pair-wise alanine substitutions at positions 152–153 (natural protein)” showed a BST2 binding (Nef/tetherin band intensity in IP) of 1.68.
In the case of “SIVmac239 Nef with pair-wise alanine substitutions at positions 166–167 (natural protein)”, the BST2 binding (Nef/tetherin band intensity in IP) is reported as 1.4.
Work on “SIVmac239 Nef with pair-wise alanine substitutions at positions 168–169 (natural protein)” yielded a BST2 binding (Nef/tetherin band intensity in IP) of 2.1.
“SIVmac239 Nef with pair-wise alanine substitutions at positions 116–117 (natural protein)” gave a BST2 binding (Nef/tetherin band intensity in IP) of 0.16.
